The target of the series is ST-pro-factor D-His (UniProt P00746).
Sequence of ST-pro-factor D-His (P00746 21-253): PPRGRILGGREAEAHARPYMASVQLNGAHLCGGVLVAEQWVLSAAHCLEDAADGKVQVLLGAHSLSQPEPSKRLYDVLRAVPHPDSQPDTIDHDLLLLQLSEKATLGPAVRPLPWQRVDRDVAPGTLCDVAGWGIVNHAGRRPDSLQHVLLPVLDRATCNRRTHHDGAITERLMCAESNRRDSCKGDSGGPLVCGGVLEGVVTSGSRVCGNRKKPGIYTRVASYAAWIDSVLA

B1: recombinant MASP-1 (CCP1-CCP2-SP) fragment (enzyme, part only; not given: tags; R504Q status unclear)
chain, part: GNECPELQPPVHGKIEPSQAKYFFKDQVLVSCDTGYKVLKDNVEMDTFQIECLKDGTWSNKIPTCKIVDCRAPGELEHGLITFSTRNNLTTYKSEIKYSCQEPYYKMLNNNTGIYTCSAQGVWMNKVLGRSLPTCLPVCGLPKFSRKLMARIFNGRPAQKGTTPWIAMLSHLNGQPFCGGSLLGSSWIVTAAHCLHQSLDPKDPTLRDSDLLSPSDFKIILGKHWRLRSDENEQHLGVKHTTLHPKYDPNTFENDVALVELLESPVLNAFVMPICLPEGPQQEGAMVIVSGWGKQFLQRFPETLMEIEIPIVDHSTCQKAYAPLKKKVTRDMICAGEKEGGKDACSGDSGGPMVTLNRERGQWYLVGTVSWGDDCGKKDRYGVYSYIHHNKDWIQRVTGVRN
In the case of B1, the “cleavage of pro-factor D substrate, Western blot” value was “only full length MASP-3 (lane 2) and the MASP-1 CCP1-CCP2-SP) fragment (lane 5) cleaved ST-pro-factor D-His6”.

The values are drawn from US20130273053.
